Test results: paper PMC8854993, “Acetylation at Lysine 86 of Escherichia coli HUβ Modulates the DNA-Binding Capability of the Protein” (Frontiers in Microbiology, 2021)

B1: 30-bp duplex with 2-nt gap (dsDNA)
DNA 1: CCAACTTCCCTAACCCAGCTGCGATCCGTA
DNA 2: TACGGATCGCAGC
DNA 3: GGTTAGGGAAGTTGG
modifications: 2-nt gap in bottom strand

How the values were obtained:
[1] = target: HUβ(K86ac) K86ac (Escherichia coli BL21(DE3)) (UniProt P0ACF4); assay: EMSA; conditions: 4 µM HU dimer, 1 µM DNA; versus HUβ2; p < 0.05; 2-nt gap in bottom strand; 30 mM Tris pH 7.5, 100 mM NaCl, 0.02% Tween20, 0.5 mg/ml BSA; 30-bp DNA 1 µM, 18°C 10 min, 10% PAGE in TBE; long DNA 250 ng in 15 µL, 37°C 1 h, 0.5% agarose in …
HUβ(K86ac) K86ac (Escherichia coli BL21(DE3)), sequence (P0ACF4 whole entry): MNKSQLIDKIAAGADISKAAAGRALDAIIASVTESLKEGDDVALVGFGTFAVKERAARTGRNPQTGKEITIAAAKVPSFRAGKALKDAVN

HUα;HUβ = HUα;HUβ (Escherichia coli BL21(DE3);Escherichia …, UniProt P0ACF0;P0ACF4 1-90;1-90, |); assay: EMSA; heterodimer; higher affinity than homodimer; 30 mM Tris pH 7.5, 100 mM NaCl, 0.02% Tween20, 0.5 mg/ml BSA; 30-bp DNA 1 µM, 18°C 10 min, 10% PAGE in TBE; long DNA 250 ng in 15 µL, 37°C 1 h, 0.5% agarose in; conditions: protein: recombinant;recombinant; tags: C-terminal 6xHis;C-terminal 6xHis; copies: 1;1; three strands; 2-nt gap in bottom strand between S16 and S17; blunt outer ends
HUα;HUβ, sequence (P0ACF0 whole entry, chain 1 of 2): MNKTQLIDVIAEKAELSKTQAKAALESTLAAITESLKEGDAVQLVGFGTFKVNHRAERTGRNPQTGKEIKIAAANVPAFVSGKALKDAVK
HUα;HUβ, sequence (P0ACF4 whole entry, chain 2 of 2): as the sequence (P0ACF4 whole entry) above

Row | Molecule | binding signal (fold free DNA) [1] | binding result (HUα;HUβ)
1 | CCAACTTCCCTAACCCAGCTGCGATCCGTA / TACGGATCGCAGC / GGTTAGGGAAGTTGG [30-bp duplex with 2-nt gap] | > 4 | 
2 | B1 |  | binds
